Laboratory results published in PMC11362571, “Multistage protective anti-CelTOS monoclonal antibodies with cross-species sterile protection against malaria” (Nature Communications, 2024).

B1: monoclonal antibody 7g7 (IgG) [mouse] / P. vivax CelTOS (Sal-1, PVX_123510, residue L36-D196) [P. vivax] (parent complex)
chain 1: EIQLQQSGPELVKPGASVKVSCKASGYSFTDYNMYWVKQSHGKSLEWIGYIDPYNGGTRYNQKFRDKATLTVDKSSSTAFMHLNSLTSEDSAVYYCARGYYYGNPLHFDVWGAGTTVTVSSAKTTPPSVYPLAPGSAAQTNSMVTLGCLVKGYFPEPVTVTWNSGSLSSGVHTFPAVLQSDLYTLSSSVTVPSSTWPSETVTCNVAHPASSTKVDKKIVPR
chain 2: QIVLTQSPAIMSASPGEKVTMTCSASSSVSYIHWYQQKSGTSPKRWIYDTSKLASGVPARFSGSGSGTSYSLTISSMEAEDAATYYCQQWISYPATFGAGTKLELKRADAAPTVSIFPPSSEQLTSGGASVVCFLNNFYPKDINVKWKIDGSERQNGVLNSWTDQDSKDSTYSMSSTLTLTKDEYERHNSYTCEATHKTSTSPIVKSFNRNEC
chain 3: LRGKSGSTASSSLEGGSEFSERIGNSLSSFLSESASLEVIGNELADNIANEIVSSLQKDSASFLQSGFDVKTQLKATAKKVLVEALKAALEPTEKIVASTIKPPRVSEDAYFLLGPVVKTLFNKVEDVLHKPIPDTIWEYESKGSLEEEEAEDEFSDELLD
B2: monoclonal antibody 4h12 (IgG) [mouse] / P. falciparum CelTOS (3D7, PF3D7_1216600, residue F25-D182) [P. falciparum] (parent complex)
chain 1: QVQLQQSGPELVKPGASVKISCKASGYALSSSWLNWVKQRPGQGLEWIGRIFPGDGDTNYNGKFKGKATLTADKSSSTAYLQLSSLTSVDSAVYFCARGGTVVFDYWGQGTTLTVSSAKTTPPSVYPLAPGSAAQTNSMVTLGCLVKGYFPEPVTVTWNSGSLSSGVHTFPAVLQSDLYTLSSSVTVPSSTWPSETVTCNVAHPASSTKVDKKIVPRD
chain 2: DIVMTQSHKFMSTSVGDRVNITCKASQDVGIAVAWYQQRPGQSPKLLIYWASKRHTGVHDRFTGTGSGTDFTLTISTVQSEDLADYFCQQYSNSLTFGAGTTLELSRADAAPTVSIFPPSSEQLTSGGASVVCFLNNFYPKDINVKWKIDGSERQNGVLNSWTDQDSKDSTYSMSSTLTLTKDEYERHNSYACEATHKTSTSPIVKSFNR
chain 3: FRGNNGHNSSSSLYNGSQFIEQLNNSFTSAFLESQSMNKIGDDLAETISNELVSVLQKNSPTFLESSFDIKSEVKKHAKSMLKELIKVGLPSFENLVAENVKPPKVDPATYGIIVPVLTSLFNKVETAVGAKVSDEIWNYNSPDVSESEESLSDDFFD

Variants of: B1
Test: ELISA; parent: 100; read off a plot

Question: With chain 3 Q57A, chain 3 K58A, chain 3 D59A as the variant, how does the percent of parent read?
Answer: ~98%

Question: chain 3 W138A, chain 3 E139A, chain 3 Y140A was tested. Which percent of parent did it give?
Answer: ~1%

Question: With chain 3 E108A, chain 3 D109A as the variant, how does the percent of parent read?
Answer: ~68%

Question: Which percent of parent does the source give for chain 3 S29A, chain 3 F30A, chain 3 L31A here?
Answer: ~100%

Question: Which percent of parent does the source give for chain 3 E14A, chain 3 G15A, chain 3 G16A here?
Answer: ~100%

Question: With chain 3 S60A, chain 3 S62A as the variant, how does the percent of parent read?
Answer: ~100%

Question: For chain 3 F112A, chain 3 L113A, chain 3 L114A, which percent of parent is on record?
Answer: ~50%

Question: For chain 3 G115A, chain 3 P116A, chain 3 V117A, which percent of parent is on record?
Answer: ~94%

Question: For chain 3 K102A, chain 3 P103A, chain 3 P104A, which percent of parent is on record?
Answer: ~86%

Question: With chain 3 G16A, chain 3 S17A, chain 3 E18A as the variant, how does the percent of parent read?
Answer: ~98%

Question: How did the percent of parent turn out when chain 3 P132A, chain 3 I133A, chain 3 P134A was run?
Answer: ~1%

Question: With chain 3 R105A, chain 3 V106A, chain 3 S107A as the variant, how does the percent of parent read?
Answer: ~77%

Question: How did the percent of parent turn out when chain 3 G67A, chain 3 F68A, chain 3 D69A was run?
Answer: ~99%

Question: With chain 3 S36A, chain 3 L37A as the variant, how does the percent of parent read?
Answer: ~93%

Question: chain 3 F63A, chain 3 L64A, chain 3 Q65A was tested. Which percent of parent did it give?
Answer: ~100%

Question: How did the percent of parent turn out when chain 3 L129A, chain 3 H130A, chain 3 K131A was run?
Answer: ~1%

Question: How did the percent of parent turn out when chain 3 S32A, chain 3 E33A, chain 3 S34A was run?
Answer: ~83%

Variants of: B2
Test: ELISA; parent: 100; read off a plot

Question: How did the percent of parent turn out when chain 3 Q35A, chain 3 S36A, chain 3 M37A was run?
Answer: ~100%

Question: chain 3 G16A, chain 3 S17A, chain 3 Q18A was tested. Which percent of parent did it give?
Answer: ~93%

Question: chain 3 G112A, chain 3 I113A, chain 3 I114A was tested. Which percent of parent did it give?
Answer: ~98%

Question: How did the percent of parent turn out when chain 3 Y14A, chain 3 N15A, chain 3 G16A was run?
Answer: ~96%

Question: With chain 3 I70A, chain 3 K71A, chain 3 S72A, chain 3 E73A as the variant, how does the percent of parent read?
Answer: ~75%

Question: How did the percent of parent turn out when chain 3 Q57A, chain 3 K58A, chain 3 N59A was run?
Answer: ~1%

Question: For chain 3 S67A, chain 3 F68A, chain 3 D69A, which percent of parent is on record?
Answer: ~94%

Question: How did the percent of parent turn out when chain 3 W138A, chain 3 N139A, chain 3 Y140A was run?
Answer: ~93%

Question: How did the percent of parent turn out when chain 3 S60A, chain 3 P61A, chain 3 T62A was run?
Answer: ~27%

Question: With chain 3 S29A, chain 3 F31A as the variant, how does the percent of parent read?
Answer: ~92%

Question: chain 3 L32A, chain 3 E33A, chain 3 S34A was tested. Which percent of parent did it give?
Answer: ~91%

Question: Which percent of parent does the source give for chain 3 P108A here?
Answer: ~96%

Question: chain 3 V129A, chain 3 G130A was tested. Which percent of parent did it give?
Answer: ~100%

Question: With chain 3 K132A, chain 3 V133A, chain 3 S134A as the variant, how does the percent of parent read?
Answer: ~99%

Question: For chain 3 D135A, chain 3 E136A, chain 3 I137A, which percent of parent is on record?
Answer: ~98%

Question: Which percent of parent does the source give for chain 3 F63A, chain 3 L64A, chain 3 E65A here?
Answer: ~0%
